Reference: patent US20220177587A1, “METHODS AND USES OF VARIANT CD80 FUSION PROTEINS AND RELATED CONSTRUCTS” (Alpine Immune Sciences, Inc., priority 2018, published 2022)

Legend:
human PD-L1 (human) [1] = molecular target: human PD-L1 (human) (UniProt Q9NZQ7); assay: flow cytometry, CHO cells expressing huPD-L1
human CTLA-4 (human) [2] = molecular target: human CTLA-4 (human) (UniProt P16410); assay: flow cytometry, CHO cells expressing huCTLA-4
CD28 (human) [3] = molecular target: CD28 (human) (UniProt P10747); assay: flow cytometry, Jurkat/IL2 reporter cells (CD28)
human PD-L1 (human) [4] = molecular target: human PD-L1 (human) (UniProt Q9NZQ7); assay: flow cytometry; PD-L1 MFI over CD28 MFI of the same protein
human PD-L1 (human) [5] = molecular target: human PD-L1 (human) (UniProt Q9NZQ7); assay: flow cytometry, CHO/huPD-L1 cells; vs WT CD80 ECD-Fc (Abcam)
human CTLA-4 (human) [6] = molecular target: human CTLA-4 (human) (UniProt P16410); assay: flow cytometry, CHO/huCTLA-4 cells; vs WT CD80 ECD-Fc (Abcam)
CD28 (human) [7] = molecular target: CD28 (human) (UniProt P10747); assay: flow cytometry, Jurkat cells (CD28); vs WT CD80 ECD-Fc (Abcam)
CD28 (human) [8] = molecular target: CD28 (human) (UniProt P10747); assay: flow cytometry, Jurkat cells (CD28)
human CTLA-4 (human) [9] = molecular target: human CTLA-4 (human) (UniProt P16410); assay: flow cytometry, CHO cells stably expressing CTLA4
human PD-L1 (human) [10] = molecular target: human PD-L1 (human) (UniProt Q9NZQ7); assay: flow cytometry, CHO cells stably expressing PD-L1
human PD-L1 (human) [11] = molecular target: human PD-L1 (human) (UniProt Q9NZQ7); assay: flow cytometry, MFI on PD-L1 cells over MFI on CD28 cells
human CTLA-4 (human) [12] = molecular target: human CTLA-4 (human) (UniProt P16410); assay: flow cytometry, CHO/CTLA4 cells; MFI over CD80 WT IgV-Fc
human PD-L1 (human) [13] = molecular target: human PD-L1 (human) (UniProt Q9NZQ7); assay: flow cytometry, CHO/PD-L1 cells; MFI over CD80 WT IgV-Fc
CD28 (human) [14] = molecular target: CD28 (human) (UniProt P10747); assay: flow cytometry, Jurkat cells (CD28); MFI over CD80 WT IgV-Fc

Sequence of human CTLA-4 (human) (P16410 36-223): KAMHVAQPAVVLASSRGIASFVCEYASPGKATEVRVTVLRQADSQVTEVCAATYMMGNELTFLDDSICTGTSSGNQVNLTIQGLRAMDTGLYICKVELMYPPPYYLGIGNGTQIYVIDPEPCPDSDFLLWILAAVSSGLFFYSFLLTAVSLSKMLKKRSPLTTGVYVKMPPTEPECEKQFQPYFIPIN
Sequence of human PD-L1 (human) (Q9NZQ7 19-290): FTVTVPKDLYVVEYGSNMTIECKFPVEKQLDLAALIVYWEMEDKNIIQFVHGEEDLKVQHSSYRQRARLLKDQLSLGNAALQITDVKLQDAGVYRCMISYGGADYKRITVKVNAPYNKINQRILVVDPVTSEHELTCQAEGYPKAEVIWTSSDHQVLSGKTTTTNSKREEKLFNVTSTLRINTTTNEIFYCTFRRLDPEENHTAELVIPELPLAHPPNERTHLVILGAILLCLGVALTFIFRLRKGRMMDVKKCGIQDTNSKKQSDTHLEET

MFI at 33.3 nM (human PD-L1 (human) [1]) [MFI]	MFI at 33.3 nM (human CTLA-4 (human) [2]) [MFI]	MFI at 33.3 nM (CD28 (human) [3]) [MFI]	Ratio of PDL1:CD28 (human PD-L1 (human) [4])	Fold change to WT CD80 (human PD-L1 (human) [5]) [fold]	Fold change to WT CD80 (human CTLA-4 (human) [6]) [fold]	Fold change to WT CD80 (CD28 (human) [7]) [fold]	Fold change to WT CD80 (CD28 (human) [8]) [fold]	MFI at 33.3 nM (CD28 (human) [8]) [MFI]	Fold change to WT CD80 (human CTLA-4 (human) [9]) [fold]	MFI at 33.3 nM (human CTLA-4 (human) [9]) [MFI]	Fold change to WT CD80 (human PD-L1 (human) [10]) [fold]	MFI at 33.3 nM (human PD-L1 (human) [10]) [MFI]	Ratio of PDL1:CD28 (human PD-L1 (human) [11])	Fold change to WT CD80 (human CTLA-4 (human) [12]) [fold]	Fold change to WT CD80 (human PD-L1 (human) [13]) [fold]	Fold change to WT CD80 (CD28 (human) [14]) [fold]	Binder
1900	30800	309	6.1	14.8	0.8	0.4	–	–	–	–	–	–	–	–	–	–	variant CD80 IgV-Fc M47L (Fc fusion) VIHVTKEVKEVATLSCGHNVSVEELAQTRIYWQKEKKMVLTMMSGDLNIWPEYKNRTIFDITNNLSIVILALRPSDEGTYECVVLKYEKDAFKREHLAEVTLSVKAD
5970	42800	76.2	78.4	46.6	1.1	0.1	–	–	–	–	–	–	–	–	–	–	variant CD80 IgV-Fc E35D/V68M/L85Q (Fc fusion) VIHVTKEVKEVATLSCGHNVSVEELAQTRIYWQKDKKMVLTMMSGDMNIWPEYKNRTIFDITNNLSIMILALRPSDEGTYECVVQKYEKDAFKREHLAEVTLSVKAD
7520	38200	268	28.1	58.8	0.9	0.4	–	–	–	–	–	–	–	–	–	–	variant CD80 IgV-Fc E35D/D46V/M47L/L85Q (Fc fusion) VIHVTKEVKEVATLSCGHNVSVEELAQTRIYWQKDKKMVLTMMSGVLNIWPEYKNRTIFDITNNLSIVILALRPSDEGTYECVVQKYEKDAFKREHLAEVTLSVKAD
–	–	–	–	–	–	–	27.2	1190	6.4	8670	73.3	3200	2.7	–	–	–	variant CD80 IgV-Fc A26E/V68M/A71G/D90G (Fc fusion) VIHVTKEVKEVATLSCGHNVSVEELEQTRIYWQKEKKMVLTMMSGDMNIWPEYKNRTIFDITNNLSIMILGLRPSDEGTYECVVLKYEKGAFKREHLAEVTLSVKAD
–	–	–	–	–	–	–	–	3170	–	15200	–	22400	–	11	136	31.1	variant CD80 IgV-Fc (inert) H18F/A26N/E35D/M47V/V68M/A71G/D90K (Fc fusion) VIHVTKEVKEVATLSCGFNVSVEELNQTRIYWQKDKKMVLTMMSGDVNIWPEYKNRTIFDITNNLSIMILGLRPSDEGTYECVVLKYEKKAFKREHLAEVTLSVKAD
–	–	–	–	–	–	–	77.8	3410	16.4	22300	703	30700	9	–	–	–	variant CD80 IgV-Fc H18Y/V68M/A71G/D90G (Fc fusion) VIHVTKEVKEVATLSCGYNVSVEELAQTRIYWQKEKKMVLTMMSGDMNIWPEYKNRTIFDITNNLSIMILGLRPSDEGTYECVVLKYEKGAFKREHLAEVTLSVKAD
28400	26200	464	61.2	222	0.6	0.7	–	–	–	–	–	–	–	–	–	–	variant CD80 IgV-Fc E35D/D46V/M47L/V68M/L85Q (Fc fusion) VIHVTKEVKEVATLSCGHNVSVEELAQTRIYWQKDKKMVLTMMSGVLNIWPEYKNRTIFDITNNLSIMILALRPSDEGTYECVVQKYEKDAFKREHLAEVTLSVKAD
2370	42100	366	6.5	18.5	1	0.5	–	–	–	–	–	–	–	–	–	–	variant CD80 IgV-Fc M47V/N48K/K89N (Fc fusion) VIHVTKEVKEVATLSCGHNVSVEELAQTRIYWQKEKKMVLTMMSGDVKIWPEYKNRTIFDITNNLSIVILALRPSDEGTYECVVLKYENDAFKREHLAEVTLSVKAD
27900	28600	1240	22.4	218	0.7	1.8	–	–	–	–	–	–	–	–	–	–	variant CD80 IgV-Fc E35D/M47L/V68M (Fc fusion) VIHVTKEVKEVATLSCGHNVSVEELAQTRIYWQKDKKMVLTMMSGDLNIWPEYKNRTIFDITNNLSIMILALRPSDEGTYECVVLKYEKDAFKREHLAEVTLSVKAD
2200	41900	131	16.8	17.2	1	0.2	–	–	–	–	–	–	–	–	–	–	variant CD80 IgV-Fc D46V/L85Q (Fc fusion) VIHVTKEVKEVATLSCGHNVSVEELAQTRIYWQKEKKMVLTMMSGVMNIWPEYKNRTIFDITNNLSIVILALRPSDEGTYECVVQKYEKDAFKREHLAEVTLSVKAD
–	–	–	–	–	–	–	82.2	3610	12.8	17400	714	31100	8.6	–	–	–	variant CD80 IgV-Fc M47L/V68M/A71G/D90G (Fc fusion) VIHVTKEVKEVATLSCGHNVSVEELAQTRIYWQKEKKMVLTMMSGDLNIWPEYKNRTIFDITNNLSIMILGLRPSDEGTYECVVLKYEKGAFKREHLAEVTLSVKAD
–	–	–	–	–	–	–	–	4800	–	23900	–	32300	–	17.3	196	47.1	variant CD80 IgV-Fc (inert) H18F/A26P/E35D/M47I/V68M/A71G/D90G (Fc fusion) VIHVTKEVKEVATLSCGFNVSVEELPQTRIYWQKDKKMVLTMMSGDINIWPEYKNRTIFDITNNLSIMILGLRPSDEGTYECVVLKYEKGAFKREHLAEVTLSVKAD
28000	34700	2180	12.8	219	0.9	3.1	–	–	–	–	–	–	–	–	–	–	variant CD80 IgV-Fc D46V/M47L/V68M (Fc fusion) VIHVTKEVKEVATLSCGHNVSVEELAQTRIYWQKEKKMVLTMMSGVLNIWPEYKNRTIFDITNNLSIMILALRPSDEGTYECVVLKYEKDAFKREHLAEVTLSVKAD
–	–	–	–	–	–	–	–	1820	–	8280	–	27300	–	6	165	17.8	variant CD80 IgV-Fc (inert) H18Y/A26P/E35D/M47Y/V68I/A71G/D90G (Fc fusion) VIHVTKEVKEVATLSCGYNVSVEELPQTRIYWQKDKKMVLTMMSGDYNIWPEYKNRTIFDITNNLSIIILGLRPSDEGTYECVVLKYEKGAFKREHLAEVTLSVKAD
–	–	–	–	–	–	–	44.5	1960	16.2	22000	303	13200	6.8	–	–	–	variant CD80 IgV-Fc A26E/M47L/A71G/D90G (Fc fusion) VIHVTKEVKEVATLSCGHNVSVEELEQTRIYWQKEKKMVLTMMSGDLNIWPEYKNRTIFDITNNLSIVILGLRPSDEGTYECVVLKYEKGAFKREHLAEVTLSVKAD
5770	34700	411	14	45	0.9	0.6	–	–	–	–	–	–	–	–	–	–	variant CD80 IgV-Fc E35D/N48K/K89N (Fc fusion) VIHVTKEVKEVATLSCGHNVSVEELAQTRIYWQKDKKMVLTMMSGDMKIWPEYKNRTIFDITNNLSIVILALRPSDEGTYECVVLKYENDAFKREHLAEVTLSVKAD
–	–	–	–	–	–	–	–	6030	–	17200	–	27500	–	12.4	167	59.1	variant CD80 IgV-Fc (inert) H18F/A26D/E35D/D46E/M47T/V68M/A71G/D90G (Fc fusion) VIHVTKEVKEVATLSCGFNVSVEELDQTRIYWQKDKKMVLTMMSGETNIWPEYKNRTIFDITNNLSIMILGLRPSDEGTYECVVLKYEKGAFKREHLAEVTLSVKAD
–	–	–	–	–	–	–	30.3	1330	15.4	20900	277	12100	9.1	–	–	–	variant CD80 IgV-Fc E35D/M47L/A71G/D90G (Fc fusion) VIHVTKEVKEVATLSCGHNVSVEELAQTRIYWQKDKKMVLTMMSGDLNIWPEYKNRTIFDITNNLSIVILGLRPSDEGTYECVVLKYEKGAFKREHLAEVTLSVKAD
6540	41300	194	33.7	51.1	1	0.3	–	–	–	–	–	–	–	–	–	–	variant CD80 IgV-Fc E35D/N48K (Fc fusion) VIHVTKEVKEVATLSCGHNVSVEELAQTRIYWQKDKKMVLTMMSGDMKIWPEYKNRTIFDITNNLSIVILALRPSDEGTYECVVLKYEKDAFKREHLAEVTLSVKAD
